Measurements taken from patent US20220089698A1 (published 2022).

How the values were obtained:
HIV gp120 Bal = HIV gp120 Bal (HIV); assay: single-point ELISA; further: test concentration or dose not given here
HIV gp120 CAAN = HIV gp120 CAAN (HIV); assay: single-point ELISA; further: test concentration or dose not given here

Binder	ELISA (A450) (HIV gp120 Bal)	ELISA (A450) (HIV gp120 CAAN)
1.1.24-1 (antibody, human IgG1, kappa) heavy: QVQLLQSGAAVTKPGASVRVSCEASGYNIRDYFIHWWRQAPGQGLQWVGWINPKTGQPNNPRQFQGRVSLTRHASWDFDTFSFYMDLKALRSDDTAVYFCARQRSDYWDFDVWGSGTQVTVSSASTKGPSVFPLAPSSKSTSGGTAALGCLVKDYFPEPVTVSWNSGALTSGVHTFPAVLQSSGLYSLSSVVTVPSSSLGTQTYICNVNHKPSNTKVDKKVEPKSCDKTHTCPPCPAPELLAGPDVFLFPPKPKDTLMISRTPEVTCVVVDVSHEDPEVKFNWYVDGVEVHNAKTKPREEQYNSTYRVVSVLTVLHQDWLNGKEYKCKVSNKALPLPEEKTISKAKGQPREPQVYTLPPSREEMTKNQVSLTCLVKGFYPSDIAVEWESNGQPENNYKTTPPVLDSDGSFFLYSKLTVDKSRWQQGNVFSCSVLHEALHSHYTQKSLSLSPGK light: DIQMTQSPSSLSASVGDTVTITCQANGYLNWYQQRRGKAPKLLIYDGSKLERGVPSRFSGRRWGQEYNLTINNLQPEDIATYFCQVYEFVVPGTRVDLKRTVAAPSVFIFPPSDEQLKSGTASVVCLLNNFYPREAKVQWKVDNALQSGNSQESVTEQDSKDSTYSLSSTLTLSKADYEKHKVYACEVTHQGLSSPVTKSFNRGEC	0.88	0.98
1.13.15-1 (antibody, human IgG1, kappa) heavy: QVQLLQSGAAVTKPGASVRVSCEASGYNIRDYFMHWVRQAPGQGLQWVGWINPKTGQPNNPRQFQGRVSLTRHASWDFDTFSFYMDLKALRSDDTAVYFCARQRSDYWDFDVWGSGTQVTVSSASTKGPSVFPLAPSSKSTSGGTAALGCLVKDYFPEPVTVSWNSGALTSGVHTFPAVLQSSGLYSLSSVVTVPSSSLGTQTYICNVNHKPSNTKVDKKVEPKSCDKTHTCPPCPAPELLAGPDVFLFPPKPKDTLMISRTPEVTCVVVDVSHEDPEVKFNWYVDGVEVHNAKTKPREEQYNSTYRVVSVLTVLHQDWLNGKEYKCKVSNKALPLPEEKTISKAKGQPREPQVYTLPPSREEMTKNQVSLTCLVKGFYPSDIAVEWESNGQPENNYKTTPPVLDSDGSFFLYSKLTVDKSRWQQGNVFSCSVLHEALHSHYTQKSLSLSPGK light: DIQMTQSPSSLSASVGDTVTITCQANGYLNWYQQRRGKAPKLLIYDGSKLERGVPSRFSGRRWGQEYNLTINNLQPEDIATYFCQVYEFFVPGTRLDLKRTVAAPSVFIFPPSDEQLKSGTASVVCLLNNFYPREAKVQWKVDNALQSGNSQESVTEQDSKDSTYSLSSTLTLSKADYEKHKVYACEVTHQGLSSPVTKSFNRGEC	0.7	0.6
1.12.15-1 (antibody, human IgG1, kappa) heavy: QVQLLQSGAAVTKPGASVRVSCEASGYNIRDYFIHWVRQAPGQGLQWVGWINPKTGQPNNPRQFQGRVSLTRHASWDFDTFSFYMDLKALRSDDTAVYFCARQRSDYWDFDVWGSGTQVTVSSASTKGPSVFPLAPSSKSTSGGTAALGCLVKDYFPEPVTVSWNSGALTSGVHTFPAVLQSSGLYSLSSVVTVPSSSLGTQTYICNVNHKPSNTKVDKKVEPKSCDKTHTCPPCPAPELLAGPDVFLFPPKPKDTLMISRTPEVTCVVVDVSHEDPEVKFNWYVDGVEVHNAKTKPREEQYNSTYRVVSVLTVLHQDWLNGKEYKCKVSNKALPLPEEKTISKAKGQPREPQVYTLPPSREEMTKNQVSLTCLVKGFYPSDIAVEWESNGQPENNYKTTPPVLDSDGSFFLYSKLTVDKSRWQQGNVFSCSVLHEALHSHYTQKSLSLSPGK light: DIQMTQSPSSLSASVGDTVTITCQANGYLNWYQQRRGKAPKLLIYDGSKLERGVPSRFSGRRWGQEYNLTINNLQPEDIATYFCQVYEFFVPGTRLDLKRTVAAPSVFIFPPSDEQLKSGTASVVCLLNNFYPREAKVQWKVDNALQSGNSQESVTEQDSKDSTYSLSSTLTLSKADYEKHKVYACEVTHQGLSSPVTKSFNRGEC	0.69	0.63
1.1.27-1 (antibody, human IgG1, kappa) heavy: QVQLLQSGAAVTKPGASVRVSCEASGYNIRDYFIHWWRQAPGQGLQWVGWINPKTGQPNNPRQFQGRVSLTRHASWDFDTFSFYMDLKALRSDDTAVYFCARQRSDYWDFDVWGSGTQVTVSSASTKGPSVFPLAPSSKSTSGGTAALGCLVKDYFPEPVTVSWNSGALTSGVHTFPAVLQSSGLYSLSSVVTVPSSSLGTQTYICNVNHKPSNTKVDKKVEPKSCDKTHTCPPCPAPELLAGPDVFLFPPKPKDTLMISRTPEVTCVVVDVSHEDPEVKFNWYVDGVEVHNAKTKPREEQYNSTYRVVSVLTVLHQDWLNGKEYKCKVSNKALPLPEEKTISKAKGQPREPQVYTLPPSREEMTKNQVSLTCLVKGFYPSDIAVEWESNGQPENNYKTTPPVLDSDGSFFLYSKLTVDKSRWQQGNVFSCSVLHEALHSHYTQKSLSLSPGK light: DIQMTQSPSSLSASVGDTVTITCQANGYLNWYQQRRGKAPKLLIYDGSKLERGVPSRFSGRRWGQEYNLTINNLQPEDIATYFCQVYEFVVPGTRVDIKRTVAAPSVFIFPPSDEQLKSGTASVVCLLNNFYPREAKVQWKVDNALQSGNSQESVTEQDSKDSTYSLSSTLTLSKADYEKHKVYACEVTHQGLSSPVTKSFNRGEC	0.97	0.99
1.1.28-1 (antibody, human IgG1, kappa) heavy: QVQLLQSGAAVTKPGASVRVSCEASGYNIRDYFIHWWRQAPGQGLQWVGWINPKTGQPNNPRQFQGRVSLTRHASWDFDTFSFYMDLKALRSDDTAVYFCARQRSDYWDFDVWGSGTQVTVSSASTKGPSVFPLAPSSKSTSGGTAALGCLVKDYFPEPVTVSWNSGALTSGVHTFPAVLQSSGLYSLSSVVTVPSSSLGTQTYICNVNHKPSNTKVDKKVEPKSCDKTHTCPPCPAPELLAGPDVFLFPPKPKDTLMISRTPEVTCVVVDVSHEDPEVKFNWYVDGVEVHNAKTKPREEQYNSTYRVVSVLTVLHQDWLNGKEYKCKVSNKALPLPEEKTISKAKGQPREPQVYTLPPSREEMTKNQVSLTCLVKGFYPSDIAVEWESNGQPENNYKTTPPVLDSDGSFFLYSKLTVDKSRWQQGNVFSCSVLHEALHSHYTQKSLSLSPGK light: DIQMTQSPSSLSASVGDTVTITCQANGYLNWYQQRRGKAPKLLIYDGSKLERGVPSRFSGRRWGQEYNLTINNLQPEDIATYFCQVYEFVVPGTNVDIKRTVAAPSVFIFPPSDEQLKSGTASVVCLLNNFYPREAKVQWKVDNALQSGNSQESVTEQDSKDSTYSLSSTLTLSKADYEKHKVYACEVTHQGLSSPVTKSFNRGEC	0.98	0.93
1.1.29-1 (antibody, human IgG1, kappa) heavy: QVQLLQSGAAVTKPGASVRVSCEASGYNIRDYFIHWWRQAPGQGLQWVGWINPKTGQPNNPRQFQGRVSLTRHASWDFDTFSFYMDLKALRSDDTAVYFCARQRSDYWDFDVWGSGTQVTVSSASTKGPSVFPLAPSSKSTSGGTAALGCLVKDYFPEPVTVSWNSGALTSGVHTFPAVLQSSGLYSLSSVVTVPSSSLGTQTYICNVNHKPSNTKVDKKVEPKSCDKTHTCPPCPAPELLAGPDVFLFPPKPKDTLMISRTPEVTCVVVDVSHEDPEVKFNWYVDGVEVHNAKTKPREEQYNSTYRVVSVLTVLHQDWLNGKEYKCKVSNKALPLPEEKTISKAKGQPREPQVYTLPPSREEMTKNQVSLTCLVKGFYPSDIAVEWESNGQPENNYKTTPPVLDSDGSFFLYSKLTVDKSRWQQGNVFSCSVLHEALHSHYTQKSLSLSPGK light: DIQMTQSPSSLSASVGDTVTITCQANGYLNWYQQRRGKAPKLLIYDGSKLERGVPSRFSGRRWGQEYNLTINNLQPEDIATYFCQVYEFVGPGTNVDIKRTVAAPSVFIFPPSDEQLKSGTASVVCLLNNFYPREAKVQWKVDNALQSGNSQESVTEQDSKDSTYSLSSTLTLSKADYEKHKVYACEVTHQGLSSPVTKSFNRGEC	0.91	1.01
1.1.26-1 (antibody, human IgG1, kappa) heavy: QVQLLQSGAAVTKPGASVRVSCEASGYNIRDYFIHWWRQAPGQGLQWVGWINPKTGQPNNPRQFQGRVSLTRHASWDFDTFSFYMDLKALRSDDTAVYFCARQRSDYWDFDVWGSGTQVTVSSASTKGPSVFPLAPSSKSTSGGTAALGCLVKDYFPEPVTVSWNSGALTSGVHTFPAVLQSSGLYSLSSVVTVPSSSLGTQTYICNVNHKPSNTKVDKKVEPKSCDKTHTCPPCPAPELLAGPDVFLFPPKPKDTLMISRTPEVTCVVVDVSHEDPEVKFNWYVDGVEVHNAKTKPREEQYNSTYRVVSVLTVLHQDWLNGKEYKCKVSNKALPLPEEKTISKAKGQPREPQVYTLPPSREEMTKNQVSLTCLVKGFYPSDIAVEWESNGQPENNYKTTPPVLDSDGSFFLYSKLTVDKSRWQQGNVFSCSVLHEALHSHYTQKSLSLSPGK light: DIQMTQSPSSLSASVGDTVTITCQANGYLNWYQQRRGKAPKLLIYDGSKLERGVPSRFSGRRWGQEYNLTINNLQPEDIATYFCQVYEFVVPGTRLDIKRTVAAPSVFIFPPSDEQLKSGTASVVCLLNNFYPREAKVQWKVDNALQSGNSQESVTEQDSKDSTYSLSSTLTLSKADYEKHKVYACEVTHQGLSSPVTKSFNRGEC	0.96	1.07
1.1.30-1 (antibody, human IgG1, kappa) heavy: QVQLLQSGAAVTKPGASVRVSCEASGYNIRDYFIHWWRQAPGQGLQWVGWINPKTGQPNNPRQFQGRVSLTRHASWDFDTFSFYMDLKALRSDDTAVYFCARQRSDYWDFDVWGSGTQVTVSSASTKGPSVFPLAPSSKSTSGGTAALGCLVKDYFPEPVTVSWNSGALTSGVHTFPAVLQSSGLYSLSSVVTVPSSSLGTQTYICNVNHKPSNTKVDKKVEPKSCDKTHTCPPCPAPELLAGPDVFLFPPKPKDTLMISRTPEVTCVVVDVSHEDPEVKFNWYVDGVEVHNAKTKPREEQYNSTYRVVSVLTVLHQDWLNGKEYKCKVSNKALPLPEEKTISKAKGQPREPQVYTLPPSREEMTKNQVSLTCLVKGFYPSDIAVEWESNGQPENNYKTTPPVLDSDGSFFLYSKLTVDKSRWQQGNVFSCSVLHEALHSHYTQKSLSLSPGK light: DIQMTQSPSSLSASVGDTVTITCQANGYLNWYQQRRGKAPKLLIYDGSKLERGVPSRFSGRRWGQEYNLTINNLQPEDIATYFCQVYEFVTPGTNVDIKRTVAAPSVFIFPPSDEQLKSGTASVVCLLNNFYPREAKVQWKVDNALQSGNSQESVTEQDSKDSTYSLSSTLTLSKADYEKHKVYACEVTHQGLSSPVTKSFNRGEC	0.9	0.86
1.1.25-1 (antibody, human IgG1, kappa) heavy: QVQLLQSGAAVTKPGASVRVSCEASGYNIRDYFIHWWRQAPGQGLQWVGWINPKTGQPNNPRQFQGRVSLTRHASWDFDTFSFYMDLKALRSDDTAVYFCARQRSDYWDFDVWGSGTQVTVSSASTKGPSVFPLAPSSKSTSGGTAALGCLVKDYFPEPVTVSWNSGALTSGVHTFPAVLQSSGLYSLSSVVTVPSSSLGTQTYICNVNHKPSNTKVDKKVEPKSCDKTHTCPPCPAPELLAGPDVFLFPPKPKDTLMISRTPEVTCVVVDVSHEDPEVKFNWYVDGVEVHNAKTKPREEQYNSTYRVVSVLTVLHQDWLNGKEYKCKVSNKALPLPEEKTISKAKGQPREPQVYTLPPSREEMTKNQVSLTCLVKGFYPSDIAVEWESNGQPENNYKTTPPVLDSDGSFFLYSKLTVDKSRWQQGNVFSCSVLHEALHSHYTQKSLSLSPGK light: DIQMTQSPSSLSASVGDTVTITCQANGYLNWYQQRRGKAPKLLIYDGSKLERGVPSRFSGRRWGQEYNLTINNLQPEDIATYFCQVYEFVVPGTNVDLKRTVAAPSVFIFPPSDEQLKSGTASVVCLLNNFYPREAKVQWKVDNALQSGNSQESVTEQDSKDSTYSLSSTLTLSKADYEKHKVYACEVTHQGLSSPVTKSFNRGEC	0.9	0.92
